Data from EP4089107A1 (Cytoki Pharma ApS, dated 2022).

T1: human IL-22 receptor (human IL-22Ra and human IL-10Rb) expressed on BHK reporter cells (human, UniProt Q8N6P7 16-574; Q08334 20-325)
T1 sequence (looked up) 1: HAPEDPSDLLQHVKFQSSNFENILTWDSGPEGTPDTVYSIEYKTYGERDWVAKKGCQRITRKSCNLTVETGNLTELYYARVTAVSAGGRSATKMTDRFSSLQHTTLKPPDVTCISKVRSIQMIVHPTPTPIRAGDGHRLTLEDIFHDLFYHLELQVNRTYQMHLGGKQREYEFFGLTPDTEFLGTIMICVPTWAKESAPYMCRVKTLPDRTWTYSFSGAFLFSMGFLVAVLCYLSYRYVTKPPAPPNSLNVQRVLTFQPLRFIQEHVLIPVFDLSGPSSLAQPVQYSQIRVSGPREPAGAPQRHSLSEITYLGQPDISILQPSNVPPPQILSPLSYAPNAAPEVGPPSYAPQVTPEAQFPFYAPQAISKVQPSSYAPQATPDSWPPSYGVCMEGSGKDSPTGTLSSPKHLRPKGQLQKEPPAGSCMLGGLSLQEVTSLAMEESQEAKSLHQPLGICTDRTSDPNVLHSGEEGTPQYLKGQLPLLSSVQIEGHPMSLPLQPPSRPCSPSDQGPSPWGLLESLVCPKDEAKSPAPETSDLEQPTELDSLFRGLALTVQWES
T1 sequence (looked up) 2: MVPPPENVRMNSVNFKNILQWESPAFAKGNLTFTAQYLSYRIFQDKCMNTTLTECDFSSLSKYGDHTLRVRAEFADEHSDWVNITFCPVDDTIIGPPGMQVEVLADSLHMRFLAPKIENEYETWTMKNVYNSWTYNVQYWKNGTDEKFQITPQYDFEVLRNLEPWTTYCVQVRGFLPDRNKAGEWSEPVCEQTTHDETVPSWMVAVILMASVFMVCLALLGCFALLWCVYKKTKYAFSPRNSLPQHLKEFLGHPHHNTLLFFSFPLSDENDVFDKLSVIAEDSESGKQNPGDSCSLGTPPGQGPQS


Legend:
[1] = molecular target: T1, human IL-22 receptor (human IL-22Ra and …); test: cell-based or functional assay
[2] = molecular target: T1, human IL-22 receptor (human IL-22Ra and …); test: cell-based or functional assay; remark: listed apart in the source

EC50 in BHK cell reporter gene assay (luciferase with STAT3-induced promoter) [1] [pM] | fold reduction in potency compared to hIL-22, BHK cell assay with albumin present [2] [fold] | Binder
70 | – | native mature human IL-22 (ligand) APISSHCRLDKSNFQQPYITNRTFMLAKEASLADNNTDVRLIGEKLFHGVSMSERCYLMKQVLNFTLEEVLFPQSDRFQPYMQEVVPFLARLSNRLSTCHIEGDDLHIQRNVQKLKDTVKKLGESGEIKAIGELDLLFMSLRNACI
230 | 3 | Derivative 1 (ligand, C18 diacid covalently attached via linker γGlu-OEG-OEG-C2DA-Ac at residue 106C) APISSHCRLDKSNFQQPYITNRTFMLAKEASLADQNTDVRLIGEKLFHGVSMSERCYLMKQVLQFTLEEVLFPQSDRFQPYMQEVVPFLARLSNRLSTCHIEGDDCHIQRNVQKLKDTVKKLGESGEIKAIGELDLLFMSLRNACI
360 | 5 | Derivative 2 (ligand, C18 diacid covalently attached via linker γGlu-OEG-OEG-C2DA-Ac at residue 95C) APISSHCRLDKSNFQQPYITNRTFMLAKEASLADQNTDVRLIGEKLFHGVSMSERCYLMKQVLQFTLEEVLFPQSDRFQPYMQEVVPFLARLSNCLSTCHIEGDDLHIQRNVQKLKDTVKKLGESGEIKAIGELDLLFMSLRNACI
